Experimental data reported in article doi:10.1101/2025.07.04.663224.

Assays:
[1] = target: SmGdpP74 (cytosolic region of Streptococcus mutans GdpP, residues 74-654) (Streptococcus mutans strain NCTC10449); test: cryo-EM structure
[2] = target: SmGdpP74 (cytosolic region of Streptococcus mutans GdpP, residues 74-654) (Streptococcus mutans strain NCTC10449); test: SEC
[3] = target: SmGdpP74 (cytosolic region of Streptococcus mutans GdpP, residues 74-654) (Streptococcus mutans strain NCTC10449); test: cryo-EM structure; remark: listed apart in the source
[4] = target: SmGdpP74 (cytosolic region of Streptococcus mutans GdpP, residues 74-654) (Streptococcus mutans strain NCTC10449); test: cryo-EM structure; remark: listed apart in the source
[5] = target: SmGdpP74 (cytosolic region of Streptococcus mutans GdpP, residues 74-654) (Streptococcus mutans strain NCTC10449); test: AUC

Measured: stoichiometry N

SmGdpP74 (cytosolic region of Streptococcus mutans GdpP, residues 74-654) (domain or fragment)
4: all assays above
